Experimental data taken from patent US20130224829A1, “NOVEL LIPOXYGENASE DERIVED FROM LEMNA PAUCICOSTATA” (priority 2010, published 2013).

Assay: Lipoxygenase activity of enzyme solutions on α-linolenic acid, reverse-phase HPLC of linolenic acid hydroperoxide
Assay type: biochemical
Conditions: for activity of position 9-product specific lypoxygenase compared with r9-LOX1 (amount of lynolenic acid-9-hydroperoxide): HPLC comparison, FIG. 6; for position 9 product specific lypoxygenase activity (peak of linolenic acid-9-hydroxyperoxide, 21.1 min): α-linolenic acid substrate, pH7.0, 30 minutes reaction, E. coli-expressed enzyme solution
Experimental: The activity of lypoxygenase in the enzyme solutions of SHLpLOX, 441LpLOX1, 441LpLOX2 and r9-LpLOX1 which was used as a control, was determined. 25 μl of 5 mM α-lynolenic acid solution (including 0.05% Tween80), 10 μl of 0.2M phosphate Na Buffer (pH7.0), 5 μl of distilled water were added to 1.5 ml of tube, and then 10 μl of the enzyme solution was added to the tube, and allowed to react for 30 minutes. After the reaction was over, reactant was subjected to HPLC (reverse phase; Column: Capsule pack C-18 UG120 (4.6×250 mm, Shiseido), Column temperature: 40° C., Mobile phase: 50% acetnitril (0.02%TFA), Flow rate 1 ml/min, Detection: 210 nm) so as to detect the site specificity of produced lynolenic acid hydroperoxide and the production amount.
The amount of lynolenic acid-9-hydroperoxide form was compared based on the results of HPLC.

Row | Molecule | activity of position 9-product specific lypoxygenase compared with r9-LOX1 (amount of lynolenic acid-9-hydroperoxide) | position 9 product specific lypoxygenase activity (peak of linolenic acid-9-hydroxyperoxide, 21.1 min)
1 | 441LpLOX1: Position 9 product specific lipoxygenase 1 obtained from Lemna paucicostata 441 strain (SEQ ID NO: 4) (protein, listed as Lemna paucicostata) MDAFIHKVTDVFTHKEENKVAKISGTVVIVKSNVVGFNDFVDSFLDGLHELVGSGITFQLISATVGDPKNGNKGKLGKPAQLERWITTGTFLAAGDSGFKLTFEWDEQLGFPGAVIVKNNHHGEFFLKSFTLDGVPGKKTRIHFDCNSWVYPYSTYNYDRVFFANDTFLPGNMPEPLKAYRAAELANLRGDGVAPRELKEGDRIYAYDVYNDLGDPDSGEELVRPILGGSKEYPYPRRARTGRKMTKTDPKSETRLPLLFSLNVYVPRDERFGHLKMSDFLGYSLKALAQGLVPVLNEAADLTPFEFDTFQDVLNLYEGGIDLPDSPALENVRKQIPFALIKELFRSDGENLFRLPTPAVIKADKFAWRTDEEFGREMLAGVNPVCIRLLTKFPPVSSLDPNTYGDHNSTMTADQLEKNMNGLSVEEALNKKKLFILDHHDSLMPYLERINTFNKIYASRTVLLLQDDGTLKPLAIELSLPIKGQKGAVSKVYTPAEHGVEAAVWQLAKAFAAVNDSGVHQLISHWLNTHATIEPFAIALNRQLSVVHPIYKLLHPHFRDTMNINAFARQILINAGGILEMTVFPGKYALEMSSVVYKGWKLIDHALPVDLLNRGVAENDPSAPGKLRLLIEDYPYAVDGLAVWSAIEIWVKEYCAIYYPSDKILQDDTELQAWWKEVREVGHGDKKDETWWPTMKTVAELTQTCCTIIWVASALHAAVNFGQYPYAGYLPNRPTVSRRFMPEPGTPEYEELKTDPDRAFLKTITSQLQTTIGVSLIEILSRHSSDEVYLGQRISAEWTTDEKALAAFKAFGERLITIENQIIEMNHEPKLKNRNGPVKLPYTLLYPNTSDYTRVGGLTGRGIPNSVSI | far higher activity | have position 9 product specific lypoxygenase activity
2 | 441LpLOX2: Position 9 product specific lipoxygenase 2 obtained from Lemna paucicostata 441 strain (SEQ ID NO: 6) (protein, listed as Lemna paucicostata) MADFLQKVTNNLLHKAAKISGTVVLVKSNVIGFNDFGDSFLDGLHELLGSGITFQLVSATVGDPNNGNKGKLGKPALLEKWITTGTFLVAGDSGFKVNFEWDEQLGIPGAVIVKNNHHGEFFLKSFTLDGVPGPRSRIHFDCNSWVYPYSTYNYDRVFFANDTYLPGETPEPLKAYRAAELVNLRGDGVTRELKEGDRIYAYDYYNDLGDPDSGKELARPILGGSKEYPYPRRARTGRKLTKTDPKSEQRLPLVFSLNVYVPRDERFGHLKMSDFLAYSLKALAQGLVPALDAAADITPFEFDTFQDVLNLYEGGINLPTTPASENFKKQIPFPLVKELFRSDGENVFRLPTPSVIKADKFAWRTDEEFGREMLAGVNPVCIRLLTKFPPVSSLDPSIYGNQNSTMIADQLEKNMNGLSVEEALKQKKLFILDHHDSLMPYLERINTFNKIYASRTVLLLRDDGTLKPLAIELSLPIKGEKGAVSKVYTPAEHGVEGAVWQLAKAYVAVNDSGVHQLISHWLNTHATIEPFSIALNRQLSVVHPIYKLLHPHFRDTMNINAFARQILINAGGILEMTVFPGKYAMEMSSVVYKGWKLTDQALPVDLLNRGVAEKDPSSGELRLLIEDYPYAVDGLDVWNAIEEWVKEYCAIYYPSDKTLLDDTELQAWWKEVREVGHGDKKDETWWPAMETVAELTQTCCTIIWVASALHAAVNFAQYPYAGYLPNRPTISRRFMPEPGTPEYEELETDPDRAFLKTITSQLQTLIGVSLIEILSRHSSDEIYLGQRVSAEWTSDAKALAAFKAFGEKLITIENKIIQMNVDSSLKNRNGPVKVPYTFLYPNTTDYTRVGGLTGRGIPNSISI |  | have position 9 product specific lypoxygenase activity
3 | SHLpLOX: Position 9 product specific lipoxygenase obtained from Lemna paucicostata SH strain (SEQ ID NO: 2), expressed in Escherichia coli (protein, listed as Lemna paucicostata) MAGFLQKVTDNLLHKAAKISGTVVLVKSNVVGFNDFADSFLDGLHELLGSGITFQLVSATVGDPKNGNKGKLGKPALLEKWITTGTFLAAGDSGFKVNFEWDEQLGVPGAVIVKNNHHGEFFLKSLTLDGAPGPRSRIHFDCNSWVYPYSTYNYDRVFFANDTYLPGEMPEPLKAYRAAELVNLRGDGVTRELKEGDRIYAYDLYNDLGDPDSGKELARPILGGSEEYPYPRRARTGRKLTKTDPKSEQRLPLVFSLNVYVPRDERFGHLKMSDFLAYSLKALAQGLVPALDAATDITPFEFDTFQDVLNLYEGGINLPTTPALENFKKQIPFPLVKELFRSDGENLFRLPTPSVIKADKFAWRTDEEFGREMLAGVNPVCIRLLKKFPPVSSLDPSIYRNQNSTMIADQLEKNMNGLSVEEALKQKKLFILDHHDSLMPYLERINTFNKIYASRTVLLLQDDGTLKPLAIELSLPVKGEKGAVSKVYTPAEHGVEGAVWQLAKAYVAVNDSGVHQLISHWLNTHATIEPFSIALNRQLSVVHPIYKLLHPHFRDTMNINAFARQILINAGGILEMTVFPGKYAMEMSSVVYKGWKLTDQALPVDLLNRGVAEKDPSSGELRLLIEDYPYAVDGLDVWNAIEEWVKEYCAIYYPSDKTLQDDTEVQAWWKEVREVGHGDKKDETWWPAMETVAELTQTCSTIIWVASALHAAVNFAQYPYAGYLPNRPTISRRFMPEPGTPEYEELETDPDRAFLKTITSQLQTLIGVSLIEILSRHSSDEIYLGQRVSAEWTSDAKALAAFKAFGEKLITIENKIIEMNVDSSLKNRNGPVKVPYTFLYPNTTDYTRVGGLTGRGIPNSISI | far higher activity | have position 9 product specific lypoxygenase activity
